The supplement of paper PMC9112550, “Optimization of the antimicrobial peptide Bac7 by deep mutational scanning” (BMC Biology, 2022)
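Further: peptides expressed intracellularly from a pBAD plasmid library in pooled LB shake-flask culture, induced with 0.3% L-arabinose, DNA abundance read by NGS, three biological replicates, DESeq2 with apeglm shrinkage.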

Each sequence was assayed on Escherichia coli TOP10 (assay: shrunken log2 fold change of peptide-encoding DNA abundance (4.5 h post-induction vs induction); higher = less antimicrobial activity (less host growth inhibition)). Details: time post-induction: 4.5 h; library: site-saturation at positions 5, 18, 19, 20.
In the case of RRIRARPPRLPRPRPRPVEGPRP, the “shrunken log2 fold change” value is reported as 0.329. With RRIRKRPPRLPRPRPRPQQEPRP the “shrunken log2 fold change” value was 0.0644. In the case of RRIRSRPPRLPRPRPRPCKDPRP, the “shrunken log2 fold change” value is reported as -0.153. RRIRHRPPRLPRPRPRPVSQPRP was tested, and the “shrunken log2 fold change” value was 0.114. With RRIRFRPPRLPRPRPRPKAIPRP the “shrunken log2 fold change” value was -0.0919. With RRIRIRPPRLPRPRPRPLRDPRP the “shrunken log2 fold change” value was 0.0322. RRIRSRPPRLPRPRPRPSPPPRP was tested, and the “shrunken log2 fold change” value was 0.154. With RRIRIRPPRLPRPRPRPEDCPRP the “shrunken log2 fold change” value was 0.00952. For RRIRQRPPRLPRPRPRPERAPRP, the “shrunken log2 fold change” value was 0.53. In the case of RRIRGRPPRLPRPRPRPMCNPRP, the “shrunken log2 fold change” value is reported as 0.31. For RRIRMRPPRLPRPRPRPWYIPRP, the “shrunken log2 fold change” value was -0.167. In the case of RRIRIRPPRLPRPRPRPQYAPRP, the “shrunken log2 fold change” value is reported as 0.0303. RRIRGRPPRLPRPRPRPRPNPRP was tested, and the “shrunken log2 fold change” value was 0.64. With RRIRGRPPRLPRPRPRPNHGPRP the “shrunken log2 fold change” value was -0.178. RRIRQRPPRLPRPRPRPRSIPRP was tested, and the “shrunken log2 fold change” value was -0.0928. RRIRFRPPRLPRPRPRPEQDPRP was tested, and the “shrunken log2 fold change” value was 1.57. In the case of RRIRQRPPRLPRPRPRPWVHPRP, the “shrunken log2 fold change” value is reported as -0.0494. In the case of RRIRLRPPRLPRPRPRPQSKPRP, the “shrunken log2 fold change” value is reported as -0.224. In the case of RRIRGRPPRLPRPRPRPWWDPRP, the “shrunken log2 fold change” value is reported as -0.145. RRIRTRPPRLPRPRPRPTQTPRP was tested, and the “shrunken log2 fold change” value was -0.0408. For RRIRGRPPRLPRPRPRPNGRPRP, the “shrunken log2 fold change” value was 0.419. RRIRYRPPRLPRPRPRPFHKPRP was tested, and the “shrunken log2 fold change” value was -0.0655. With RRIRGRPPRLPRPRPRPWFGPRP the “shrunken log2 fold change” value was -0.05. In the case of RRIRARPPRLPRPRPRPTTKPRP, the “shrunken log2 fold change” value is reported as 0.541. With RRIRIRPPRLPRPRPRPLALPRP the “shrunken log2 fold change” value was -0.138. With RRIRKRPPRLPRPRPRPFWIPRP the “shrunken log2 fold change” value was -0.414. In the case of RRIRHRPPRLPRPRPRPEYSPRP, the “shrunken log2 fold change” value is reported as -0.0276. With RRIRGRPPRLPRPRPRPFMPPRP the “shrunken log2 fold change” value was -0.0647. With RRIRCRPPRLPRPRPRPNYYPRP the “shrunken log2 fold change” value was -0.868. In the case of RRIRIRPPRLPRPRPRPRMWPRP, the “shrunken log2 fold change” value is reported as -0.0292. For RRIRKRPPRLPRPRPRPSPAPRP, the “shrunken log2 fold change” value was 0.478. For RRIRERPPRLPRPRPRPEHYPRP, the “shrunken log2 fold change” value was -0.454. For RRIRRRPPRLPRPRPRPTMAPRP, the “shrunken log2 fold change” value was 0.392. In the case of RRIRARPPRLPRPRPRPGVMPRP, the “shrunken log2 fold change” value is reported as 0.437. With RRIRPRPPRLPRPRPRPHQIPRP the “shrunken log2 fold change” value was 1.04. With RRIRRRPPRLPRPRPRPTLGPRP the “shrunken log2 fold change” value was 0.138. For RRIRMRPPRLPRPRPRPRGPPRP, the “shrunken log2 fold change” value was 0.684. RRIRKRPPRLPRPRPRPGRVPRP was tested, and the “shrunken log2 fold change” value was 0.58. RRIRRRPPRLPRPRPRPCGTPRP was tested, and the “shrunken log2 fold change” value was 0.363. RRIRERPPRLPRPRPRPCACPRP was tested, and the “shrunken log2 fold change” value was -0.78. RRIRERPPRLPRPRPRPEYIPRP was tested, and the “shrunken log2 fold change” value was -0.177. For RRIRERPPRLPRPRPRPGEPPRP, the “shrunken log2 fold change” value was -0.107. With RRIRKRPPRLPRPRPRPQIAPRP the “shrunken log2 fold change” value was -0.11. For RRIRCRPPRLPRPRPRPIVTPRP, the “shrunken log2 fold change” value was 0.0598. RRIRNRPPRLPRPRPRPTPWPRP was tested, and the “shrunken log2 fold change” value was 0.161. For RRIRNRPPRLPRPRPRPVNIPRP, the “shrunken log2 fold change” value was -0.435. In the case of RRIRDRPPRLPRPRPRPKPYPRP, the “shrunken log2 fold change” value is reported as -0.12. In the case of RRIRQRPPRLPRPRPRPKFPPRP, the “shrunken log2 fold change” value is reported as 0.118. With RRIRPRPPRLPRPRPRPGMPPRP the “shrunken log2 fold change” value was -0.074. RRIRIRPPRLPRPRPRPVWEPRP was tested, and the “shrunken log2 fold change” value was 0.108. In the case of RRIRARPPRLPRPRPRPHWHPRP, the “shrunken log2 fold change” value is reported as -0.0354. For RRIRERPPRLPRPRPRPNQDPRP, the “shrunken log2 fold change” value was 0.169. In the case of RRIRQRPPRLPRPRPRPSVMPRP, the “shrunken log2 fold change” value is reported as -0.283. With RRIRDRPPRLPRPRPRPEHVPRP the “shrunken log2 fold change” value was 0.212. In the case of RRIRCRPPRLPRPRPRPWLTPRP, the “shrunken log2 fold change” value is reported as -0.117. For RRIRDRPPRLPRPRPRPCSGPRP, the “shrunken log2 fold change” value was -0.0282. RRIRFRPPRLPRPRPRPRDSPRP was tested, and the “shrunken log2 fold change” value was -0.051. With RRIRYRPPRLPRPRPRPGLTPRP the “shrunken log2 fold change” value was -0.21. With RRIRRRPPRLPRPRPRPKSWPRP the “shrunken log2 fold change” value was 0.249. RRIRARPPRLPRPRPRPNTGPRP was tested, and the “shrunken log2 fold change” value was -0.0394. RRIRSRPPRLPRPRPRPTMQPRP was tested, and the “shrunken log2 fold change” value was -0.106. In the case of RRIRQRPPRLPRPRPRPRKYPRP, the “shrunken log2 fold change” value is reported as -0.2. For RRIRPRPPRLPRPRPRPKPWPRP, the “shrunken log2 fold change” value was 0.227. In the case of RRIRWRPPRLPRPRPRPMRGPRP, the “shrunken log2 fold change” value is reported as 0.754. For RRIRYRPPRLPRPRPRPAPFPRP, the “shrunken log2 fold change” value was -0.11. For RRIRPRPPRLPRPRPRPWGHPRP, the “shrunken log2 fold change” value was -0.0804. For RRIRWRPPRLPRPRPRPRGLPRP, the “shrunken log2 fold change” value was 0.698. In the case of RRIRSRPPRLPRPRPRPTVPPRP, the “shrunken log2 fold change” value is reported as 0.0372. For RRIRNRPPRLPRPRPRPKARPRP, the “shrunken log2 fold change” value was -0.00166. With RRIRNRPPRLPRPRPRPTIEPRP the “shrunken log2 fold change” value was 0.0325. In the case of RRIRKRPPRLPRPRPRPHRIPRP, the “shrunken log2 fold change” value is reported as 0.00291. For RRIRYRPPRLPRPRPRPVEKPRP, the “shrunken log2 fold change” value was -0.129. For RRIRWRPPRLPRPRPRPLGYPRP, the “shrunken log2 fold change” value was -0.24. With RRIRPRPPRLPRPRPRPIQGPRP the “shrunken log2 fold change” value was -0.128. With RRIRNRPPRLPRPRPRPSYGPRP the “shrunken log2 fold change” value was -0.156.
